# Substitutions are numbered along the chain they refer to.
# B1: TaCGT2-B: C-glycosyltransferase from wheat, SEQ ID NO: 12 (protein, listed as Triticum aestivum)
# chain: MASSPRDDRAGAAAPRPRIVLLPSASMGHLAPFSRLAAALSSGHACDVSLVTVLPTVSSAESGQLDALFAAFPAVRRLDFQLPPLDAPELSGADPFYVHYEATRRSARLLAPLLAAADASVLVADISLASVLIPVASELRLPCYVFFTASATMFSFYAYYPTYLDAAGAGDADVPGVYRIPKSSFPQALHDRNNLFTQQFVANGRSLSKADGLLINTFDALEPEAVTALRQGSVVPGCPPVFTVGPLSPVSFPARASADYSACLDAQPERSVVYVSFGSRKALARDQLSELADGLEASGCRFLWVVKGAVVDKDDGAELSELLGEGFLQRVSGRALVTKAWVEQGEVLKHPAIGMFVSHCGWDSLTEAFATGVPVLAWPRFADQRVNAGIVARCGAGVWVERWSWEGDEGVVKGEEIAEKVKSVMANEMLRRSSTMVREAAMTAVAGGGTSYRSLAELVARCCDGSASQ
# B2: ZmCGT4: C-glycosyltransferase from maize, SEQ ID NO: 14 (protein)
# chain: MSSPAPSSASRSSHGSRGSPRIVLFPSAGMGHLVPFTRLAVALSAGHGCEISLLTALPTVSSAESRHIAALYAAFPAIRQLDLRFAPFDASSEFPGADPFYLRYEALRRCAPSLLGPLLAGAGASALVVDMALASVAIPVARELHVPCFVFFTASATMLSFKAYFPTYLDDVGAGHGVGDVDVPGVYRIPSSSVPQALHDPDNIFTRQFVANGRALATADGLLVNAFHAMEPEAVEALQGRFVLSVLPPVFAVGPLMPVNDLRETGEAAQKQGNYRAWLDEQPPRSVVYVSFGSRKALPKDQIKELAAGLEACGHRFLWVVKGAVVDRDDAGELSELLGEAFLRRVHGRGLVTKSWVEQEEVLRHPAVALFVSHCGWNSVTEAVSSGVPVLAWPRFADQRVNARVVVRCGLGVWADQWSWEGEEALVRAEEITALVMEAMEDDAMAVKAANVREAASRAVVDGGTSYRSLAAFVRRCTA
# modifications: Zea mays
# B3: ZmCGT5: C-glycosyltransferase from maize, SEQ ID NO: 15 (protein)
# chain: B2 chain with A9P, G18S, E50D, L54V
# modifications: Zea mays
# B4: BdCGT1: C-glycosyltransferase from Brachypodium distachyo, SEQ ID NO: 16 (protein)
# chain: MPTSGDGPTSQPHVVLLPSAGMGHLVPFSRLAVALSSAHGCDVSLVTVLPTVSSAESSHLEALFGAFPAVRRLEFHLADFDASEFPNADPFFLRFEAMRRSAPLLLGPLLARASATALVTDIALSSVVIPVAKQLRLPCYVLFTASAAMLSLCVHFPAYLDANGNGLVGDVDIPGVYQIPKASVPQALHDPKHLFTRQFVANGRELAKSDGVLVNSFDAFEPEAIAALREGAVSAAGFFPPVFSVGPLAPVSFPAGNNNRADYIQWLEAQPARSVVYVSFGSRKAVARDQLRELAAGLEASGHRFLWVVKSTVVDRDDDADLGELLGEGFLERVQGRGMVTKGWVEQEDVLKQESVGLFISHCGWNSVTEAAAGGLPVLAWPRFGDQRVNAGVVARSGLGVWVDSWSWEGEEGVVSGESIAEKVKAVMGDEIARNKAVSVRDAAAKAVADGGTSYRNLARFAQRCRDGRVRE
# modifications: Brachypodium distachyon
# B5: SiCGT1: C-glycosyltransferase from millet, SEQ ID NO: 17 (protein, listed as Setaria italica)
# chain: MPTSGDHSGARPHVVLLPSAGMGHLVPFGRLAVALSAGHGCDVSVAAVLPTVSSAEARHLEALFAAADPAVRRLDFRLAPFDASEFPGADPFFLRFEAMRRSAPLLGPLLATAGASAVVTDIVLASVVLPVARECGVPCYVLFTASAAMLAFCAHFPGYLDANSAAGRAGVVGDVDIPGVYRIPKSSVPQALHDPKHLFTQQFVANGRGLVDADGILVNTFDALEPEAVTALRKGKVVSSFPLVFAVGPLLPVMFPAKDPAGYMQWLDAQPARSVVYVSFGSRTAISPDQLLELAAGLEASGHRFLWVVKSTVVDRDDAGELGDLLGHGFLERVRGRALVTKGWVEQEEILQHGSVGLFVSHCGWNSVTEAAAFGVPVLAWPRFGDQRINAAVVTRGGLGAWEERWSWDGEEGLVSGEEVGEKIKAVMADETVAKKAAAVGDAAAAAATSKGGTSYRSLAEFVGRCRDAGSRQDR
# B6: TaCGT2-D: C-glycosyltransferase from wheat, SEQ ID NO: 13 (protein, listed as Triticum aestivum)
# chain: MASSSRDDRAGAAAPRPRIVLIPSAGMGHLAPFSRLAAALSSGHTCNVSLVTVLPTVSSAESGHLDALFAAFPAVRRLDFQLPPLDAPELSGADPFYVHYEATRRSARLLAPLLAAADASALVADISLASVLIPVASELRLPCYVFFTASATMFSFYAYYPTYLDAAGAGDADVPGVYRIPKSSFPQALHDRNNLFTQQFVANGQSLSKADGLLINTFDALEPEAVTALRQGSVVPGFPPVFNVGPLSPVSFPARASSDYSAWLDAQPERSVVYVSFGSRKALARDQLSELADGLEASGCRFLWVVKGTVVDKDDGAELSELLGEGFLQRVSGRALVTKAWVEQGEVLKHPAIGMFVSHCGWNSLTEAFASGVPVLAWPRFADQRVNAGIVARRGAGVWVERWSWEGDDGVVKGEEIAEKVKSVMADEMLRRSSTVVREAAMTAVAGGGTSYRSLAELVARCCDGSASNAPSEA
# B7: TaCGT1-D: C-glycosyltransferase from wheat, SEQ ID NO: 10 (protein, listed as Triticum aestivum)
# chain: MPTSGDASGALPHPHVVLLPSAGMGHLVPFSRLAVSLSSPGHGCGVSVATVLPTVSSAESAHLDALFGACPAVRRLDFHLAPFDASEFPGADPFFLRFEAMRRSAPLLGPLLAGAGASALVTDIALASVVIPVARDLRLPCYVLFTASAAMLSLCVHFPAYLDANAGGPVGDVGIPGVYRVPKASIPQALHHPEHLFTQQFVANGRELAKADGLLVNSFDAFEPEAIAALRNGSVAAGFPPVFSVGPLAPVSFSASEPPENQADYMRWLEAQPARSVVYVSFGSRKAISKDQLRELAVGLEASGHRFLWVVKSTVVDRDDEAELSELLGEGFLERVQGRGMVTKGWVEQEEVLKQESIGLFISHCGWNSVTEAAANGLPVLAWPRFGDQRVNAGVVARSGLGVWEERWSWEGEEGTVSGHNIAEKVKTVMADKTVRNKAVSVQDAAAEAVADGGTSYRSLAQFVQRCRDLSVSK
# B8: TaCGT2-A: C-glycosyltransferase from wheat, SEQ ID NO: 11 (protein, listed as Triticum aestivum)
# chain: MASSSRDDRAGAAAPRPRIVLLPSAGMGHLAPFSRLAAALSSGHACDVSLVTVLPTVSSAESGQLDALFAAFPAVRRLDFHLPPLDAPELSGADPFYVHYEATRRSARLLAPLLAAADASALIADISLASVLIPVASELRLPCYVFFTASATMFSFYAYYPTYLDATGAGDADVPGVYRIPKSSFPQALHDRNNLFTQQFVANGRSLSKADGLLINTFDDLEPEAVTALRQGSVVPGFPPVFTVGPLSPVSFPARASSDYSAWLDAQPERSVVYVSFGSRKALARDQLSELADGLEASGCRFLWVVKGAVVDKDDGAELSELLGEGFLQRVSGRALVTKAWVEQGEVLKHPAIGMFVSHCGWNSLTEAFATGVPVLAWPRFADQRVNAGIVARCGAGVWVERWSWEGDDGVVKGEEIAEKVKSVMADEMLRRSSTVVREAATTAVAGGGTSYRSLAELVARCCHGSALQ
# Assay: In vitro functional identification of C-glycosyltransferases by HPLC, phloretin as glycosyl receptor
# Format: biochemical
# Details: 0.1 mM phloretin, 0.3 mM UDP glucose, crude enzyme, 37° C., 2 h, HPLC (FIG. 1A)
# Method: The recombinant plasmid was transformed into competent cells of Escherichia coli BL21 (DE3), and cultured overnight at 37° C. in solid LB medium (kanamycin 50 μg/mL). Single colony was transferred to a 2 mL LB liquid medium (containing 50 μg/ml kanamycin) and incubated overnight. The bacterial fluid was transferred to a new 100 ml LB liquid medium with antibiotics and incubated at 37° C. and 250 r/min until OD600 reached 0.5-0.6. The culture was cooled down to 16° C. in a water bath. Then inducer IPTG was added at a final concentration of 0.1 mM. The mixture was cultured at 16° C. for low temperature induction and 180 r/min for 20 h. The BL21(DE3) recombinant strain carrying the pET28a empty plasmid was used as a blank control, and the culture operation was the same as above. The bacteria were harvested by centrifugation (6000 r/min, 5 min), re-suspended in 1 mL of lysis buffer Buffer A (20 mM Tris-HCl, pH 8.0; 100 mM NaCl), and DNase was added to a final concentration of 5 μg/mL, Mg^2+ to a final concentration of 2 mM; protease inhibitor PMSF to a final concentration of 1 mM; the bacteria were incubated on ice for 30 min and then sonicated; refrigerated centrifugation (10,000 rpm, 30 min, 4° C.), filtered through a 0.2 µm filter membrane to obtain the supernatant crude enzyme solution, and added 20% glycerol for cryopreservation (−20° C.).
# The in vitro enzyme catalytic assay system is 100 μL. The reaction system includes: 0.1 mM glycosyl receptor (phloretin or 2-hydroxynaringenin), 0.3 mM UDP glucose, 25 μL supernatant crude enzyme solution, and Buffer A is used to make up the volume to 100 μL, and react at 37° C. for 2 h. After the reaction was completed, an equal volume of methanol was added to terminate the reaction, and HPLC was used for product analysis. HPLC detection conditions: chromatographic column: reverse phase C18 column [SilGreen ODS column (ø 4.6×250 mm)], detection wavelength 280 nm; mobile phase: acetonitrile (0.1% formic acid)-water (0.1% formic acid) mixture gradient elution, with increased ratio from 5:95 to 100:0 within 0 to 20 min, and the flow rate was 1 mL/min.
Molecule,conversion of substrate phloretin to C-glycosylated product (Nothofagin),"5′ C-glycosylation of 3′-glycosylated phloretin giving phloretin-3′,5′-C-diglucoside"
B1,can convert the substrate phloretin to a product having a shorter retention time,–
B2,can convert the substrate phloretin to a product having a shorter retention time,–
B3,can convert the substrate phloretin to a product having a shorter retention time,–
B4,can convert the substrate phloretin to a product having a shorter retention time,–
B5,can convert the substrate phloretin to a product having a shorter retention time,can catalyze the glycosylation of the 3′-glycosylated phloretin at the 5′ position
B6,can convert the substrate phloretin to a product having a shorter retention time,–
B7,can convert the substrate phloretin to a product having a shorter retention time,can catalyze the glycosylation of the 3′-glycosylated phloretin at the 5′ position
B8,can convert the substrate phloretin to a product having a shorter retention time,–
